From publication PMC2581630, “S-Nitrosylation of Surfactant Protein-D Controls Inflammatory Function” (PLoS Biology, 2008) come the findings set out here.

Series [1] deals with SNO-SP-D in BAL from mice overexpressing SP-D, after treatment with S-nitrosocysteine (not stated (in BAL of SP-D overexpressing mice)) (UniProt P50404). As to the kind of experiment: SEC; BAL from SP-D overexpressing mice with or without SNOC, 0.75 mg total protein in 250 μl; Superdex 200 HR 10/30, 0.3 ml/min, 25 mM HEPES pH 7.25, 150 mM NaCl; fractions analysed by SDS-PAGE and Western blot for SP-D. (In gel filtration, larger molecules generally elute earlier.)

Series [2] concerns the molecule itself. As to the kind of experiment: non-reducing SDS-PAGE with Western blot; recombinant proteins denatured without thiol reductant, SDS-PAGE, Western blot with SP-D antibody; shows only oligomers that survive SDS (disulfide-linked). On the technique in general: In western blotting, separated proteins are transferred to a membrane and probed.

The term stoichiometry N denotes a count of units in the complex or per binding partner. As to “SNO-SP-D in BAL from mice overexpressing SP-D, after treatment with S-nitrosocysteine (from UniProt P50404 20-374) (natural protein)”, the stoichiometry N in series [1] came out at 3.

B1: rat recombinant SP-D (surfactant protein D) (natural protein, UniProt P35248 20-374, looked up)
chain: AEMKTLSQRSITNTCTLVLCSPTENGLPGRDGRDGREGPRGEKGDPGLPGPMGLSGLPGPRGPVGPKGENGSAGEPGPKGERGLVGPPGSPGISGPAGKEGPSGKQGNIGPQGKPGPKGEAGPKGEVGAPGMQGSAGAKGPAGPKGERGAPGEQGAPGNAGAAGPAGPAGPQGAPGSRGPPGLKGDRGAPGDRGIKGESGLPDSAALRQQMEALNGKLQRLEAAFSRYKKAALFPDGQSVGDKIFRAANSEEPFEDAKEMCRQAGGQLASPRSATENAAVQQLVTAHSKAAFLSMTDVGTEGKFTYPTGEALVYSNWAPGEPNNNGGAENCVEIFTNGQWNDKACGEQRLVICEF
notes: surfactant protein D (SP-D), rat, recombinant; It has the N-terminal cysteines 15 and 20 and the head domain, so it is probably the whole mature chain; also called rSP-D; RrSP-D; source: recombinant
As for B1, the “stoichiometry N” value in series [2] came out at 3.
